This series has as its target T1, 6xHis-Ndt80 WT DBD (Saccharomyces cerevisiae, UniProt P38830 1-340).
T1 sequence: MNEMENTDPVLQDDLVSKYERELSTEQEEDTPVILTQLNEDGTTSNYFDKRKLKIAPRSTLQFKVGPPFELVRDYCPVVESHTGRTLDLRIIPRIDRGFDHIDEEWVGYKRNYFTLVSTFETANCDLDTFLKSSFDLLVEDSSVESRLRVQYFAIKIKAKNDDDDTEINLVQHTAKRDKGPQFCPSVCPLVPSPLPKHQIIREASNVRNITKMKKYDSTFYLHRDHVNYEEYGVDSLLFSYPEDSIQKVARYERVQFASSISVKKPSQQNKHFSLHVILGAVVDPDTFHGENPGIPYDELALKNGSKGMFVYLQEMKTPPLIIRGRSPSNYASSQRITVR
Nature of the series: EMSA; 50 nM DBD, 50 nM duplex; highest non-specific binding of the three DBDs; EMSA: 10 mM Tris-HCl pH 7.5, 40 mM NaCl, 4 mM MgCl2, 6% glycerol, 10 mg/ml BSA, 10 ug/ml sonicated salmon sperm DNA; 20 ul, room temperature, 30 min; 6% PAGE in 0.5X TBE. As to conditions: protein: recombinant; tags: N-terminal 6xHis (pET-28a); label: 5' Cy5 on strand 1; blunt. For orientation: A gel shift assay detects complexes by their altered migration in electrophoresis.

B1: Cy5-Scr duplex (dsDNA)
DNA 1: ATTGACGCGGCTTCATCTCACGTATCATT
DNA 2: AATGATACGTGAGATGAAGCCGCGTCAAT
Regarding B1, the binding result was “binds”.

These data come from publication PMC6289461, “Mek1 coordinates meiotic progression with DNA break repair by directly phosphorylating and inhibiting the yeast pachytene exit regulator Ndt80”.
